From US20240067748A1 (NONA BIOSCIENCES SUZHOU, published 2024)
Each block holds one binder with its values, some of them ahead of it.

Tests used:
[1] = target: T1, monkey Trop2 protein (Sino Biological, #90893-C08H) (monkey, UniProt A0A2K5UE71 27-274); assay: BLI, Octet RED96; ratio against KD for human Trop2 protein
T1 construct: bought protein; also called monkey Trop2 protein antigen (His tag)
T1 sequence: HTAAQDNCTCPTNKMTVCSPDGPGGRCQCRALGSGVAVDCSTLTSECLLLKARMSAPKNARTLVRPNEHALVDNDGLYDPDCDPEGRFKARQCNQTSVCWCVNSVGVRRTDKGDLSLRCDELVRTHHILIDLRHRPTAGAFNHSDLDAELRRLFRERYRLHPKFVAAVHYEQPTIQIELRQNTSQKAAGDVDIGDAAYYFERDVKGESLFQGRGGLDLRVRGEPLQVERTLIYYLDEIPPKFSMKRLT
Experimental: (§1) Specifically, a human TROP2 protein (Sino Biological, #10428-H08H) or a monkey Trop2 protein (Sino Biological, #90893-C08H) was diluted to 200 nM with a PBS buffer (pH 7.4) containing 0.1% (w/w) BSA and 0.02% (v/v) tween 20, and incubated with the AHC sensor respectively. 40 nM Trop2 antibody was incubated at 30° C. for 3 min with the AHC sensor loaded with the human Trop2 protein or monkey Trop2 protein respectively. The reaction mixture was incubated at 30° C. for another 5 min in a PBS buffer (pH 7.4) containing 0.1% (v/w) BSA and 0.02% (v/v) Tween 20. The association and dissociation signals between the Trop2 antibody and the human Trop2 protein or monkey Trop2 protein were recorded by Octet Red 96 in real time. The affinity and the association and dissociation constants were determined by Octet using software.

[2] = target: T1, monkey Trop2 protein (Sino Biological, …); assay: BLI, Octet RED96, AHC sensor
Experimental: as §1

[3] = target: T2, human TROP2 protein (Sino Biological, #10428-H08H) (human, UniProt P09758 27-274); assay: BLI, Octet RED96, AHC sensor
T2 construct: bought protein; also called human Trop2 protein antigen (His tag); not shown: His tag
T2 sequence (looked up): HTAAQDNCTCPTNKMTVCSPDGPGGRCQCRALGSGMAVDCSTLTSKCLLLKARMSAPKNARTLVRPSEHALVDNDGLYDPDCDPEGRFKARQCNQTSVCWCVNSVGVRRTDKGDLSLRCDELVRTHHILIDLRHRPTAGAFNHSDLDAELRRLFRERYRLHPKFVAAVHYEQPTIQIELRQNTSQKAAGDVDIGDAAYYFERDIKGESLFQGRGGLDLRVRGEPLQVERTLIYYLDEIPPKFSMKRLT
Experimental: as §1

[4] = target: T2, human TROP2 protein (Sino Biological, …); assay: BLI epitope binning (Octet), biotinylated human Trop2 on SA sensor; row = primary antibody; competitor (secondary antibody, column): PR001142
Experimental: (§2) The biotinylated mixture after the incubation was washed three times with PBS and a Zeba centrifugal desalting column (Thermo Fisher, #89882) to remove excess biotin. The biotinylated Trop2 protein was captured by an SA sensor (Pall ForteBio, #18-5019) with the loading baseline set at 0.3 nm. The sensor was immersed in a well of assay buffer containing 50 nM primary antibody for 300 s. […] The binding assay was performed by comparing the binding of the secondary antibody to Trop2 in the presence of the primary antibody to the blocking of the primary antibody itself.

[5] = target: T3, human Trop2 on cells (human, UniProt P09758 27-323); assay: cell-based or functional assay
T3 sequence (looked up): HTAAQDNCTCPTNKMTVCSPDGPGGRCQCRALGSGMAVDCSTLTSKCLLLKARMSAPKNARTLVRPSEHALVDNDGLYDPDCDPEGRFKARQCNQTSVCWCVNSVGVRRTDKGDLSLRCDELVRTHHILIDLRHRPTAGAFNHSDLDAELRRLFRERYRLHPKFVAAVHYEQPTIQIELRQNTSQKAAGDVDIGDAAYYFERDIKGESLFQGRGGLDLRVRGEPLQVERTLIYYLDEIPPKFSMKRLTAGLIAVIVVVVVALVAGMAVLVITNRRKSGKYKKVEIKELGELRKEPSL

[6] = target: T2, human TROP2 protein (Sino Biological, …); assay: BLI epitope binning (Octet), biotinylated human Trop2 on SA sensor; row = primary antibody; competitor (secondary antibody, column): PR001165
Experimental: as §2

[7] = target: T2, human TROP2 protein (Sino Biological, …); assay: BLI epitope binning (Octet), biotinylated human Trop2 on SA sensor; row = primary antibody; competitor (secondary antibody, column): PR001166
Experimental: as §2

[8] = target: T2, human TROP2 protein (Sino Biological, …); assay: BLI epitope binning (Octet), biotinylated human Trop2 on SA sensor; row = primary antibody; competitor (secondary antibody, column): hRS7
Experimental: as §2

[9] = target: T3, human Trop2 on cells; assay: cell-based or functional assay; remark: listed apart in the source
[10] = target: T1, monkey Trop2 protein (Sino Biological, …); assay: SPR, Biacore T200, antigen immobilised on CM5 chip
Experimental: (§3) HBS-EP+ (10 mM HEPES, 150 mM NaCl, 3 mM EDTA, and 0.05% P20, pH 7.4, GE Healthcare, BR-1001-88) was used as a running buffer throughout the test. […] Data were analyzed using Biacore T200 (GE Healthcare, T200 model, #BIAC-B20-03) Evaluation 3.1 software.

[11] = target: T2, human TROP2 protein (Sino Biological, …); assay: SPR, Biacore T200, antigen immobilised on CM5 chip
Experimental: as §3

B1: PR001162 (antibody, human IgG1, kappa, V domains shown)
VH: QVQLVESGGGVVQPGTSLRLSCVASGFTFSNDGMHWVRQAPGMGLEWVAIMWFDGGSKYYADSVKGRFTISRDNSKNTLYLQMNNLRAEDTAVYYCARDHPHYLGSGSFDYWGQGTLVTVSS
VL: EIVLTQSPATLSLSPGERATLSCRASQSVSSYLAWYQQKPGQAPRLLIYDASNRATGIPARFSGSGSGTDFTLTISSLQAEDVAVYYCQQYYSTPYTFGQGTKLEIKR
notes: fully human IgG1/kappa; also called antibody No. (23)
KD (monkey)/KD (human) [1]: 2.16
Kd [2]: 3.66 nM
Response [2]: 0.37
koff [2]: 0.000732 s⁻¹
kon [2]: 200000 M⁻¹ s⁻¹
Kd [3]: 1.7 nM
Response [3]: 0.366
koff [3]: 0.000507 s⁻¹
kon [3]: 298000 M⁻¹ s⁻¹

B2: PR001133 (antibody, human IgG1, kappa, V domains shown)
VH: QVNLVESGGGVVQPGRSLKLSCAASGFTFSSYGMHWVRQAPGKGLEWVALIWSDGTNRYYTESVKGRFTISRDNSKNTLSLQMKSLRAEDTAVYYCAKDGWGTYGEYFQHWGQGTLVTVSS
VL: DIQMTQSPSSLSASVGDRVTITCRASQNINSYLHWYQQKPGKAPKLLIYAASSLQSGVPSRFSGSGSGTDFTLTISSLQPEDFAIYYCQQSYSIPPITFGQGTRLEIKR
notes: fully human IgG1/kappa; also called antibody No. (5)
KD (monkey)/KD (human) [1]: 2.27
Kd [2]: 2.49 nM
Response [2]: 0.369
koff [2]: 0.000149 s⁻¹
kon [2]: 59800 M⁻¹ s⁻¹
Kd [3]: 1.1 nM
Response [3]: 0.386
koff [3]: 9.72e-05 s⁻¹
kon [3]: 88500 M⁻¹ s⁻¹

Second part, led by results:

Kd [2]: < 0.001 nM
Response [2]: 0.384
koff [2]: < 1e-07 s⁻¹
kon [2]: 83500 M⁻¹ s⁻¹
Kd [3]: < 0.001 nM
Response [3]: 0.402
koff [3]: < 1e-07 s⁻¹
kon [3]: 130000 M⁻¹ s⁻¹
B3: PR001128 (antibody, human IgG1, kappa, V domains shown)
VH: QVQLQESGPGLVKPSGTLSLTCAVSGGSISSSNWWSWVRQPPGKGLEWIGEIFHSGTTYYNPSLKSRVTILVDKSKNQFSLKLSSVTAADTAVYYCARDNTKSWDHFDHWGQGTLVTVSS
VL: EIVLTQSPATLSLSPGERATLSCRASQSVGSYLAWYQQKPGQAPSLLIYDASNRATGIPARFSGSGSGTDFTLTISSLEPEDFAVYYCQQRTNWYTFGQGTKLEIKR
notes: fully human IgG1/kappa; also called antibody No. (1)

Inhibition rate (%) [4]: 85.4%
ADCC (donor 1152#) EC50(nM), BxPC-3 + PBMC, LDH release [5]: 0.02 nM
ADCC (donor 2153#) EC50(nM), BxPC-3 + PBMC, LDH release [5]: 0.0347 nM
Kd [2]: < 0.001 nM
Response [2]: 0.322
koff [2]: < 1e-07 s⁻¹
kon [2]: 316000 M⁻¹ s⁻¹
Kd [3]: < 0.001 nM
Response [3]: 0.324
koff [3]: < 1e-07 s⁻¹
kon [3]: 470000 M⁻¹ s⁻¹
Inhibition rate (%) [6]: 18.5%
Inhibition rate (%) [7]: 102%
Inhibition rate (%) [8]: 21.8%
ADCP (Donor A1925144#) EC50(nM), BxPC-3 + macrophages [9]: 0.0311 nM
ADCP (Donor A1925144#) Maximum phagocytosis % [9]: 9.33%
ADCP (Donor A1925144#) Minimum phagocytosis % [9]: 2.05%
ADCP (Donor A19143143#) EC50(nM), BxPC-3 + macrophages [9]: 0.161 nM
ADCP (Donor A19143143#) Maximum phagocytosis % [9]: 40.2%
ADCP (Donor A19143143#) Minimum phagocytosis % [9]: 2.04%
Kd [10]: 0.0856 nM
koff [10]: 0.000137 s⁻¹
kon [10]: 1.59e+06 M⁻¹ s⁻¹
Kd [11]: 0.0279 nM
koff [11]: 5.78e-05 s⁻¹
kon [11]: 2.07e+06 M⁻¹ s⁻¹
B4: PR001166 (antibody, human IgG1, kappa, V domains shown)
VH: QVQLQESGPGLVKPSETLSLTCAVSGYSISSGYFWAWIRQPPGKGLEWIGSIYHSGRTHYNPSLKSRVIISLDTSKNQFSLKLRSVTAADSAVYYCAREGYASGSYYWGQGTLVTVSS
VL: EIVMTQSPATLSVSPGERATLSCRSSQSVNNYLAWFQQKPGQAPRLLIYDSSTRATGIPARFSGSGSGTEFTLTISSLQSEDFAFYFCQQYENWPLTFGGGTKVEIKR
notes: fully human IgG1/kappa; also called antibody No. (27)
ADCC (donor 1152#) Maximum cell killing % [5]: 36.5%
ADCC (donor 1152#) Minimum cell killing % [5]: 3.25%
ADCC (donor 2153#) Maximum cell killing % [5]: 69.1%
ADCC (donor 2153#) Minimum cell killing % [5]: 11.9%
